Legend:
histone H3 = histone H3 (UniProt P68432); experiment: fluorescence spectroscopy (acrylodan-labelled PfNapS titrated with histone); details: read off a plot
[1] = molecular target: PfNapS residues 29-221 (crystallised construct) (Plasmodium falciparum); experiment: crystal structure; hanging drop vapour diffusion at 20°C, 0.2 M di-ammonium tartrate, 20% PEG 3350; space group P212121, three dimers in the asymmetric unit; Se-SAD at 3.2 Å, native data to 2.8 Å

Substance | response (histone H3; Histone H3 5 microgram) | response (histone H3; Histone H3 10 microgram) | response (histone H3; Histone H3 15 microgram) | response (histone H3; Histone H3 20 microgram) | response (histone H3; Histone H3 25 microgram) | response (histone H3; Histone H3 30 microgram) | stoichiometry N [1]
PfNapS labelled with acrylodan (PfNapS^dye) C47A | 0.55 | 0.56 | 0.6 | 0.61 | 0.64 | 0.63 | –
PfNapS residues 29-221 (crystallised construct) (domain or fragment) | – | – | – | – | – | – | 2
